Assay results published in publication PMC12420824, “Discovery of a selective alpha-kinase 1 inhibitor for the rare genetic disease ROSAH syndrome” (Nature Communications, 2025).
Blank lines part the entries; values can stand above or below the binder they belong to.

What was measured:
[1] = molecular target: T1, human ALPK1 N-terminal regulatory domain aa. 1-446 (human, UniProt Q96QP1-1 1-446); experiment: crystal structure; mALPK1-KD and ALPK1-ND mixed, complex purified by size exclusion chromatography, 10 mg/ml; hanging drop vapor diffusion, 12% PEG 3350, 0.1 M CBTP pH 8.2; conditions: both partners purified
T1 construct: The sentence names the His-TEV tag before the mouse kinase domain; it is read here as applying to both constructs; also called ALPK1-ND; human N-terminal regulatory domain; source: E. coli, purified (Ni column; His-tag cleaved with TEV protease)

[2] = molecular target: the molecule itself; experiment: AlphaScreen or HTRF; TR-FRET after kinase reaction (260 nM HA-His-TIFA, 2 nM ALPK1, 6.25 uM ATP, 20 nM ADP-D-heptose, 1.5 h, 27 °C); anti-HA-Eu cryptate and anti-HA-d2 bound to the same TIFA oligomer, 26 °C for 1 h

T1 sequence (Q96QP1 1-446): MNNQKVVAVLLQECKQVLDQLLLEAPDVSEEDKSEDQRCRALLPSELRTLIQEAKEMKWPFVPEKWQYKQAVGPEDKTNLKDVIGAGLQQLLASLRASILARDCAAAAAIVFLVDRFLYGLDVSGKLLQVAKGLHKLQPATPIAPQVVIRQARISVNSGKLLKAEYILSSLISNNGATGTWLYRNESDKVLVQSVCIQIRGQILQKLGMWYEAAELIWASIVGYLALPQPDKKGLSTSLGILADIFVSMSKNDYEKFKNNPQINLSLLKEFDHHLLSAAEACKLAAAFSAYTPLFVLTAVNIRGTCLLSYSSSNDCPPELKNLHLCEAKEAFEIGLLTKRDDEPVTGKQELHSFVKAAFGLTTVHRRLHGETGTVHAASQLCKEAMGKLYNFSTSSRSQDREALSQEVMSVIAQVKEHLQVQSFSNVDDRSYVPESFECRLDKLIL

binding result [1]: binds
B1: Mouse ALPK1 kinase domain aa. 949-1231 (domain or fragment)
chain: not shown
notes: Used for crystallography in complex with the human N-terminal domain (a complex of two species' forms); also called mALPK1-KD; mouse kinase domain; source: E. coli, purified (Ni column; His-tag cleaved with TEV protease)

B2: recombinant HA-His-tagged TIFA, phosphorylated by ALPK1 (natural protein, human, UniProt Q96CG3 1-184, looked up)
chain: MTSFEDADTEETVTCLQMTVYHPGQLQCGIFQSISFNREKLPSSEVVKFGRNSNICHYTFQDKQVSRVQFSLQLFKKFNSSVLSFEIKNMSKKTNLIVDSRELGYLNKMDLPYRCMVRFGEYQFLMEKEDGESLEFFETQFILSPRSLLQENNWPPHRPIPEYGTYSLCSSQSSSPTEMDENES
modifications: phosphorylated by recombinant ALPK1 in the kinase reaction; residues not stated for this experiment
notes: TIFA, human; source: E. coli, purified (Ni column, desalted); phosphorylated in vitro by recombinant ALPK1; not shown: HA, N-terminal, kept
binding result [2]: binds
